According to paper PMC8964682, “Structural and biochemical characterization of in vivo assembled Lactococcus lactis CRISPR-Csm complex” (Communications Biology, 2022):

B1: Lactococcus lactis Csm3 Asp30Ala, subunit of the LlCsm (D14N)1(D30A)3 complex (natural protein)
chain: MKLVIEGTIVLKTGMHIGGSSDFSAIGAVASPVVRDTLTRLPLIPGSSLKGKMRYLLAKELNNGILLNEPNNDQDEILRLFGSSEKDKIRRARLKFNDIKLSNLAELETFNVSSTEVKFENTINRKTAVANPRQIERVIAGSKFDFEIFYNLDDIKEVEKDFENIKQGFDLLEFDYLGGHGTRGSGRIAFENLSVITAVGNFEKINTLNEILGA
notes: Csm3 of the plasmid-encoded (pKLM) Type III-A CRISPR-Cas system of Lactococcus lactis, with the RNase-site mutation D30A; Csm3.1 is the Csm3 copy closest to Csm4; There are four copies in CTR-43, NTR and apo, and three in CTR-32; also called Csm3.1; Csm3.2
B2: Lactococcus lactis Csm2 with N-terminal His6-tag, subunit of the LlCsm complex (natural protein)
chain: TELKIGNEKVNSTNFGDFAEKAIRGINHKPFVNSKGGEQKITTSKIRGILELVNKVYNRVINTNDVELSENILADIAYIKVKIAYESGREPVVKDFIQRTAFTAAITDVMNQRTRESFLLFARYVESLIAYFKFYGGKD
notes: Csm2 of the plasmid-encoded (pKLM) Type III-A CRISPR-Cas system of Lactococcus lactis; The csm2 gene encoded the His6-tag in all variants of LlCsm (wild type and Csm1 D14N / Csm3 D30A); Removal of the tag is not mentioned; also called LlCsm2; not shown: His6, N-terminal, kept

Assays:
[1] = target: the molecule itself; experiment: cryo-EM structure; co-purified LlCsm (Csm1 D14N, Csm3 D30A)-crRNA incubated with CTR at 1:2, 37 °C, 60 min, then SEC; no ATP; two classes, CTR-43 (3.0 Å) and CTR-32 (3.3 Å)
[2] = target: the molecule itself; experiment: cryo-EM structure; co-purified LlCsm (Csm1 D14N, Csm3 D30A)-crRNA incubated with NTR at 1:2, 37 °C, 60 min, then SEC; 3.4 Å

Row | Protein | stoichiometry N [1] | stoichiometry N [2]
1 | B1 | 3 | 4
2 | B2 | 2 | 3
